According to publication PMC3686692 (PLoS ONE, 2013):

What was measured:
hemoglobin [1] = conditions: PK-PD model estimates from different populations and structural models; cited from earlier work
From the text: The estimates of red blood cell life span (67.5 days) obtained from this analysis are consistent with previously reported values in the literature (60 to 65 days in dialysis patients), [17].

hemoglobin [2] = assay: Population PK-PD model (modified precursor-dependent lifespan indirect response) of hemoglobin levels; assay type: in vivo, human; conditions: final PK-PD model
From the text: (§1) These studies were: AFX01-02 (NCT00109291) [data on file], AFX01-03 (NCT00228449), AFX01-04 (NCT00228436) and AFX01-07 (NCT00434330) [data on file]). Data were also utilized from one Phase 3 study, AFX01-14 (NCT00597584) conducted in hemodialysis patients. All plasma concentration-time data obtained in Phase 2 (with frequent PK and PD sampling scheme) [7, 8, AFX01-2, AFX01-07] and Phase 3 studies, with sparse PK and frequent PD sampling schemes, were used for the development of the PK model.
The concentration of hemoglobin was measured using a standard laboratory method in a Clinical Laboratory Improvement Amendments certified central laboratory. Baseline weight was used to calculate the dose (in mg/kg). The first order conditional estimation (FOCE) and first-order (FO) method as implemented in NONMEM were used for PK and PK-PD modeling. Model selection criteria included a statistically significant reduction of the objective function value (OFV) (α = 0.05) for nested models, Akaike information criteria for non-nested models, reductions in both residual (σ^2) and inter-subject (ω^2) variability, improvement in the precision of parameter estimates as measured by the percent standard error of the mean (%SEM), and visual examination of standard goodness-of-fit plots. […]
In the study, baseline erythropoietin levels were not measured in all patients. […]
A generalized additive modeling (GAM) approach along with graphical analysis (plots of the inter-subject error terms for each parameter [ηi] versus covariates) was used for initial covariate screening and to determine the functional form of the relationship between the covariates and PK and PD parameters of peginesatide. […] The relationship between continuous covariates and PK and PD parameters were evaluated using linear, exponential and power functions as described in Equations 9, 10, and 11 with the covariates centered or scaled at their median values: [drawing 11] […]
The adequacy of the final PK and PK-PD models was evaluated using a simulation-based prediction-corrected (pc) visual predictive check (VPC) method (1000 replicates). […]

[3] = Population pharmacokinetic model of peginesatide plasma concentrations (NONMEM); assay type: in vivo, human; conditions: for Subcutaneous bioavailability (F1): fraction
From the text: as §1
The lower and upper limits of quantification for the assay were 25 and 600 ng/mL, respectively.
The concentration of hemoglobin was measured using a standard laboratory method in a Clinical Laboratory Improvement Amendments certified central laboratory. Baseline weight was used to calculate the dose (in mg/kg). The first order conditional estimation (FOCE) and first-order (FO) method as implemented in NONMEM were used for PK and PK-PD modeling. Model selection criteria included a statistically significant reduction of the objective function value (OFV) (α = 0.05) for nested models, Akaike information criteria for non-nested models, reductions in both residual (σ^2) and inter-subject (ω^2) variability, improvement in the precision of parameter estimates as measured by the percent standard error of the mean (%SEM), and visual examination of standard goodness-of-fit plots.
Several different PK models were evaluated as base structural PK models. These included: 1-compartment and 2-compartment with first-order absorption and elimination; 1-compartment and 2-compartment with first-order absorption and Michaelis-Menton (MM) elimination; and a combination of zero- and first-order absorption with linear and MM elimination. Life-span, negative-feedback and precursor-dependent Lifespan Indirect Response (LIDR) models were evaluated as potential base PK-PD models.
In order to avoid possible multicollinearity issues, GAM analyses were performed for PK and PD parameters using different combinations of covariates that were deemed to be highly correlated (r>0.6) along with the remaining covariates. The potential covariates selected following GAM analysis were then tested using a standard approach of stepwise forward addition (P<0.05) followed by stepwise backward elimination procedure (P<0.005). […] The relationship between continuous covariates and PK and PD parameters were evaluated using linear, exponential and power functions as described in Equations 9, 10, and 11 with the covariates centered or scaled at their median values: [drawing 11] [drawing 12] [drawing 13]
The adequacy of the final PK and PK-PD models was evaluated using a simulation-based prediction-corrected (pc) visual predictive check (VPC) method (1000 replicates). Due to the dose adjustment algorithm used in these trials, the pcVPC was utilized. This technique provides an enhanced ability to diagnose possible model misspecification by removing the variability introduced in an ordinary VPC when binning across a potentially large variability in dose or other influential covariates. The percent of observations outside the 90% prediction interval were also calculated to evaluate predictive ability of the model. A non-parametric bootstrap procedure (1000 bootstrap runs) was also employed to evaluate the precision of the parameter estimates and the robustness of the final PK and PK-PD models.
Inter-individual variability (IIV) was estimated for volume of the central compartment (V2), the absorption rate constant (Ka) and the concentration required to reach 50% of maximum rate of elimination (KM) using exponential models, assuming a log-normal distribution for each parameter.

[4] = cited from earlier work
[5] = dialysis patients, cited from earlier work
[6] = median bootstrap estimate, 935/1000 converged runs
[7] = final population PK model, 672 CKD patients on/not on dialysis, IV or SC, final estimate (% SEM)
[8] = final population PK model, SC, final estimate (% SEM)
[9] = final population PK model, median bootstrap estimate, 870/1000 converged runs

Substance: darbepoetin alfa
- EC50 (hemoglobin [1]): 0.41 ng/mL
- Emax (hemoglobin [1]): 0.637

Substance: methoxy polyethylene glycol-epoetin beta [Micera]
- EC50 (hemoglobin [1]): 0.898 ng/mL
- Emax (hemoglobin [1]): 0.425

Substance: peginesatide
- Drug concentration required for 50% of maximum response (EC50) (hemoglobin [2]; 517 hemodialysis patients, IV or SC, plasma concentration, final estimate (% SEM)): 401 (2.0) ng/mL
- Drug concentration required for 50% of maximum response (EC50) (hemoglobin [2]; [6]): 417 ng/mL
- Maximum pharmacologic effect (Emax) (hemoglobin [2]; [6]): 0.564
- effect of concomitant medications on PK or PD parameters ([3]; concomitant medications taken by >10% of the patient population during 80% of the trial period): did not alter
- total volume of distribution ([3]; estimated population value, IV and SC administration): 0.043 L/kg
- Central volume of distribution (V2) [3, 7]: 35.6 (2.7) mL/kg
- Concentration needed to reach 50% of Vmax (KM) [3, 7]: 1880 (14.6) ng/mL
- Maximum rate of elimination (Vmax) [3, 7]: 45.3 (10.0) ng/mL/hr
- Absorption rate constant (Ka) [3, 8]: 0.00865 (15.6) 1/hr
- Subcutaneous bioavailability (F1) [3, 8]: 0.498 (4.4)
- Peripheral volume of distribution (V3) ([3]; final population PK model, final estimate (% SEM)): 7.44 (10.3) mL/kg
- Subcutaneous bioavailability (F1) [3, 9]: 0.499
- Absorption rate constant (Ka) [3, 9]: 0.00869 h⁻¹
- Age slope for V2 [3, 9]: –0.125 L/yr
- BMI power for V2 [3, 9]: –0.485
- Central volume of distribution (V2) [3, 9]: 35.6 mL/kg
- Concentration needed to reach 50% of Vmax (KM) [3, 9]: 1860 ng/mL
- ETHN shift for Ka [3, 9]: 0.00815 (1/hr)
- Maximum rate of elimination (Vmax) [3, 9]: 44.7 ng/mL/h
- Peripheral volume of distribution (V3) [3, 9]: 7.42 mL/kg
- TBILI slope for V2 [3, 9]: 0.482 L/(g/L)
- bioavailability after SC administration ([3]; model estimated, final population PK model): approximately 50%
- linearity of pharmacokinetics ([3]; population PK model, over the evaluated dose range): non-linear pharmacokinetics
- volume of distribution ([4]; healthy volunteers): 0.035 L/kg
- half-life (T1/2) ([4]; human, in vivo, sc): 53.0 ± 17.7 h
- mean volume of distribution ([5]; IV administration, mean ± standard deviation): 0.0349 ± 0.0138 L/kg
- accumulation ([5]; IV or SC administration every 4 weeks): No accumulation
- bioavailability ([5]; SC administration): approximately 46%
- time at which Cmax is reached ([5]; SC administration): approximately 48 hours
